Results taken from paper PMC8567202, “Phosphoinositide-binding activity of Smad2 is essential for its function in TGF-β signaling” (The Journal of Biological Chemistry, 2021).
Residue numbers refer to the chain shown, from its start. Numbers in names are those of the source.

B1: Smad2 WT: bacterially expressed full-length Smad2 wild-type (protein)
chain: MSSILPFTPPVVKRLLGWKKSAGGSGGAGGGEQNGQEEKWCEKAVKSLVKKLKKTGRLDELEKAITTQNCNTKCVTIPSTCSEIWGLSTANTVDQWDTTGLYSFSEQTRSLDGRLQVSHRKGLPHVIYCRLWRWPDLHSHHELKAIENCEYAFNLKKDEVCVNPYHYQRVETPVLPPVLVPRHTEILTELPPLDDYTHSIPENTNFPAGIEPQSNYIPETPPPGYISEDGETSDQQLNQSMDTGSPAELSPTTLSPVNHSLDLQPVTYSEPAFWCSIAYYELNQRVGETFHASQPSLTVDGFTDPSNSERFCLGLLSNVNRNATVEMTRRHIGRGVRLYYIGGEVFAECLSDSAIFVQSPNCNQRYGWHPATVCKIPPGCNLKIFNNQEFAALLAQSVNQGFEAVYQLTRMCTIRMSFVKGWGAEYRRQTVTSTPCWIELHLNGPLQWLDKVLTQMGSPSVRCSSMS
modifications: left off: His6, N-terminal, state not stated
notes: bacterially expressed full-length Smad2 wild-type
B2: EGFP-Smad2 WT: mouse EGFP-Smad2 wild type transfected into HeLa cells (protein, UniProt Q62432 2-467, looked up)
Mothers against …: SSILPFTPPVVKRLLGWKKSAGGSGGAGGGEQNGQEEKWCEKAVKSLVKKLKKTGRLDELEKAITTQNCNTKCVTIPSTCSEIWGLSTANTVDQWDTTGLYSFSEQTRSLDGRLQVSHRKGLPHVIYCRLWRWPDLHSHHELKAIENCEYAFNLKKDEVCVNPYHYQRVETPVLPPVLVPRHTEILTELPPLDDYTHSIPENTNFPAGIEPQSNYIPETPPPGYISEDGETSDQQLNQSMDTGSPAELSPTTLSPVNHSLDLQPVTYSEPAFWCSIAYYELNQRVGETFHASQPSLTVDGFTDPSNSERFCLGLLSNVNRNATVEMTRRHIGRGVRLYYIGGEVFAECLSDSAIFVQSPNCNQRYGWHPATVCKIPPGCNLKIFNNQEFAALLAQSVNQGFEAVYQLTRMCTIRMSFVKGWGAEYRRQTVTSTPCWIELHLNGPLQWLDKVLTQMGSPSVRCSSMS
modifications: EGFP fusion
notes: mouse EGFP-Smad2 wild type transfected into HeLa cells
B3: Smad2-W422A: W422A mutant of full-length Smad2; specific PI(4,5)P2 binding-compromised (protein)
chain: B1 chain with W422A
modifications: left off: His6, N-terminal, state not stated
B4: Smad2-Y426A: Y426A mutant of full-length Smad2; specific PI(4,5)P2 binding-compromised (protein)
chain: B1 chain with Y426A
modifications: left off: His6, N-terminal, state not stated
B5: Smad2-K420A: K420A mutant of full-length Smad2; predominantly TβRI binding-compromised (protein)
chain: B1 chain with K420A
modifications: left off: His6, N-terminal, state not stated
B6: Smad2- R427A/R428A: double mutant of full-length Smad2; PI(4,5)P2 and TβRI binding-compromised (protein)
chain: B1 chain with R427A, R428A
modifications: left off: His6, N-terminal, state not stated
B7: Smad2-E425K: charge-reversal mutant of full-length Smad2; PI(4,5)P2 and TβRI binding-enhanced (protein)
chain: B1 chain with E425K
modifications: left off: His6, N-terminal, state not stated

Test system: HeLa cells
Assay: Smad2 phosphorylation (pS465/pS467), Western blot
Format: cell-based
Details: HeLa cells, PI(4,5)P2 depletion
Description: (§1) Two separate gels were used to accommodate all mutants. An empty vector transfection (vehicle) was used for a negative control for each gel. Glyceraldehyde 3-phosphate dehydrogenase (GAPDH) was used as a gel loading control. Data in A and B are quantified in Fig. S3A. C, TGF-β stimulated (10 ng/ml for 1 h) nuclear translocation of mouse EGFP-WT, -K420A, -W422A, -E425K, -Y426A, and -R427A/R428A transfected into HeLa cells whose endogenous Smad2 was suppressed by siRNA. For Smad2-WT, the effect of PI(4,5)P2 depletion was measured. Arrows indicate nuclear accumulation of EGFP-WT and EGFP-E425K. Scale bars indicate 10 μm. D, quantification of (C). (Inuc/Icyto) was calculated from total nuclear and cytosolic fluorescence intensity values. Blank and black bars indicate values before and after TGF-β stimulation. Error bars indicate S.D. values from >3 measurements (n = 10). E, Smad2 transcriptional activity measured by the luciferase assay. Blank and black bars indicate values before and after TGF-β stimulation. Error bars indicate S.D. values from >3 measurements (n = 10).
HeLa cells were plated on 6-well or 48-well plates at the density of ∼1.5 × 10^5 or 1.25 × 10^4 for 24 h and 30 nM human Smad2 (or SARA) DsiRNAs (IDT: see sequences below) were transfected into cells using the jetPRIME system (Polyplus transfection) according to the manufacturer's protocols. After transfection with siRNA for 24 h, the medium was exchanged with a fresh one and cells were transfected again with 1 μg/ml of the mouse Smad2 expression vector. In total, 24 to 48 h after transfection, cells were used for further treatment or Western blot analysis. The sequences of DsiRNAs are as follows: SMAD2-siRNA1 (sense: 5′-[…]-3′; antisense: 5′-[…]-3′); SMAD2-siRNA2 (sense: 5′-[…]-3′; antisense: 5′-[…]-3′); SMAD2-siRNA3 (sense: 5′-[…]-3′; antisense: 5′-[…]-3′); SARA-siRNA1 (sense: 5′-[…]-3′; antisense: 5′-[…]-3′); SARA-siRNA2 (sense: 5′-[…]-3′; antisense: 5′-[…]-3′).
Transfected cells or treated cells were lysed in the cell lysis buffer (20 mM Tris-HCl, pH 7.5, containing 150 mM NaCl, 1 mM Na2EDTA, 1 mM EGTA, 1% Triton-X, protease inhibitors, and phosphatase inhibitors) (1 mM Na3VO4, 1 mM NaF, 1 μg/ml leupeptin, 1 mM phenylmethanesulfonylfluoride, 1.5 mM benzamidine, and 2 μg/ml pepstatin). The total protein concentration of the cell lysate was determined by the Pierce BCA protein assay kit (Thermo scientific). The same amounts of proteins were loaded onto a polyacrylamide gel to run sodium dodecyl sulfate–polyacrylamide gel electrophoresis. Proteins were separated and transferred to a polyvinylidene difluoride membrane. The membrane was blocked with 5% bovine serum albumin for 1 h and incubated overnight at 4 °C with various antibodies (1:1000 dilution for all antibodies). After the unbound antibodies were removed by washing with 0.1% Tris buffer saline with 0.1% Tween20, the membranes were incubated with the horseradish peroxidase secondary antibody (1:5000 dilution) for 1 h at room temperature. The membranes were washed three more times with 0.1% Tris buffer saline with 0.1% Tween20 to remove the unbound horseradish peroxidase secondary antibody before imaging. The chemiluminescence intensity of protein bands in the gel was analyzed and documented by the Azure 500Q Imaging System.

Row | Molecule | Smad2 phosphorylation after PI(4,5)P2 depletion
1 | B1 | greatly suppressed Smad2 phosphorylation

Same assay, conditions: Smad2-depleted HeLa cells, 10 ng/ml TGF-β, 48 h

Row | Molecule | Smad2 phosphorylation after TGF-β stimulation
2 | B2 | fully restored after TGF-β stimulation
3 | B3 | minimally phosphorylated
4 | B4 | minimally phosphorylated
5 | B5 | little phosphorylation after TGF-β stimulation
6 | B6 | minimally phosphorylated
7 | B7 | phosphorylated to a larger extent than WT

Test system: HeLa cells
Assay: Nuclear translocation of EGFP-Smad2
Format: cell-based
Details: HeLa cells with endogenous Smad2 suppressed, 10 ng/ml TGF-β for 1 h
Description: as §1
The ratio of nuclear to cytoplasmic protein was calculated from the fluorescence intensity of nucleus (Inuc) and the cytoplasm (Fcyto) in cross-section images of cells using the line profile function of Image-Pro Plus software (Media Cybernetics). Briefly, at least five different lines were drawn across the cross-sectional image of each cell and the average Inuc and ICyto values were calculated along the lines. Typically, more than ten cell images were analyzed for each data set to determine the average and SD values.

Row | Molecule | nuclear transport after TGF-β stimulation
8 | B2 | moved from the cytoplasm to the nucleus
9 | B3 | did not show nuclear transport
10 | B4 | did not show nuclear transport
11 | B5 | did not show nuclear transport
12 | B6 | did not show nuclear transport
13 | B7 | excessively transported to the nucleus

Same assay, conditions: HeLa cells, PI(4,5)P2 depletion, TGF-β 10 ng/ml for 1 h

Row | Molecule | nuclear transport after PI(4,5)P2 depletion
14 | B1 | abrogated the nuclear transport of Smad2 WT

Test system: Smad2 transcriptional activity
Assay: Dual luciferase reporter assay for Smad2 transcriptional activity
Format: cell-based
Details: HeLa cells, PI(4,5)P2 depletion
Description: as §1
HeLa cells were plated on 6-well plates at the density of ∼1.5 × 10^5 and treated with siRNA as described above. The reporter gene containing three TGF-β/activin response element (ARE) coupled with the luciferase gene (pGL2 3ARE-Lux: Addgene) was used for enhanced activity ([55]). On translocation into the nucleus, receptor-activated Smad2 associates with the DNA-binding protein FAST1 to form a transcriptional complex on the ARE of the Mix.2 promoter. After 24 h, the cell media were replaced with fresh media and cells were cotransfected with 375 ng pGL2 3ARE-Lux experimental vector, 37.5 ng pGL4.73[hRluc/SV40] internal control vector (Promega), 337.5 ng FAST1, and 750 ng of pcDNA 3.1 plasmid harboring Smad2 WT or mutant using the jetPRIME transfection system (Polyplus transfection) according to the manufacturer's protocols. After 24 h of transfection, cells were placed in fresh media and stimulated with 10 ng/ml TGF-β for 48 h. Then the cells were washed with phosphate buffer saline, and the dual luciferase reporter assay was performed according to the manufacturer's protocols (Promega). All 3ARE-Luc activity values were normalized using the pGL4.73[hRluc/SV40] values as a reference.

Row | Molecule | TGF-β-induced Smad2 transcriptional activity after PI(4,5)P2 depletion
15 | B1 | abrogated TGF-β-induced Smad2 transcriptional activity

Same assay, conditions: Smad2-suppressed HeLa cells, luciferase, 10 ng/ml TGF-β for 48 h

Row | Molecule | Smad2 transcriptional activity after TGF-β stimulation
16 | B3 | much reduced activity even after TGF-β stimulation
17 | B4 | much reduced activity even after TGF-β stimulation
18 | B5 | much reduced activity even after TGF-β stimulation
19 | B6 | much reduced activity even after TGF-β stimulation
20 | B7 | higher transcriptional activity than exogeneous Smad2 WT
21 | B1 | fully restored Smad2 transcriptional activity
